Results from US20250312499A1, “KISSPEPTIN RECEPTOR (KISS1R) TARGETED THERAPEUTICS AND USES THEREOF” (priority 2024, published 2025).
Blank lines part the entries; values can stand above or below the binder they belong to. Numbered stars: 1 amine (or outer) side, 2 acyl side, 3 side chain; on linkers, the order of the positions; unused ones are H or OH. Square brackets hold non-standard residues; d marks the D form. * marks the point of attachment. X2 = 4‑amino‑1‑((3-fluoro-4-methylbenzyl)glycyl)piperidine‑4‑carboxylic acid, Cc1ccc(CN(CC(=O)N2CCC(N[*:1])(C(=O)[*:2])CC2)[*:3])cc1F; DOTA = O=C(O)CN1CCN(CC(=O)O)CCN(CC(=O)*)CCN(CC(=O)O)CC1; Api(1-amidino) = N=C(N)N1CCC(N)(C(=O)O)CC1; d2Nal = N[C@H](Cc1ccc2ccccc2c1)C(=O)O; 4Pal = N[C@@H](Cc1ccncc1)C(=O)O; d4Pal = N[C@H](Cc1ccncc1)C(=O)O; Ahx = NCCCCCC(=O)O; azaGly = NNC(=O)O

Molecular target: human kisspeptin receptor (KISS1R) (human), Q969F8
Experiment: radioligand competition, hKISS1R membranes; legend: A is <10 nM

Sequence of human kisspeptin receptor (KISS1R) (human), Q969F8 (Q969F8 whole entry): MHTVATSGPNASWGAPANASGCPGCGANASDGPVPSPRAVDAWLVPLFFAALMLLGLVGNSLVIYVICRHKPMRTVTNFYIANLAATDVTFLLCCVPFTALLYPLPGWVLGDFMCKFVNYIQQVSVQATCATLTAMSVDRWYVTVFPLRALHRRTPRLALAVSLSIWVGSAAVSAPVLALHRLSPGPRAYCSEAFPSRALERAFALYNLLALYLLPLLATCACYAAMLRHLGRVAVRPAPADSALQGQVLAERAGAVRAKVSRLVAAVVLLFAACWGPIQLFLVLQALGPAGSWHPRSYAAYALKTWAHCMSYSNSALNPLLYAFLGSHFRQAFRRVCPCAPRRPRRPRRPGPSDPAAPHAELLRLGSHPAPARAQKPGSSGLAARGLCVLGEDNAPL

Ki: < 10 nM
B1: Compound 293 (peptide)
peptide: {DOTA-Ahx}-[dY][dW]NTF[azaGly]L[Apc(OMe)][4Pal]-NH2

Ki: < 10 nM
B2: Compound 292 (peptide)
peptide: {DOTA-Ahx}-[d2Nal]NTF[azaGly]L[X2][4Pal]-NH2
SMILES: Cc1ccc(CNCC(=O)N2CCC(NC(=O)[C@H](CC(C)C)NC(=O)NNC(=O)[C@H](Cc3ccccc3)NC(=O)[C@@H](NC(=O)[C@H](CC(N)=O)NC(=O)[C@@H](Cc3ccc4ccccc4c3)NC(=O)CCCCCNC(=O)CN3CCN(CC(=O)O)CCN(CC(=O)O)CCN(CC(=O)O)CC3)[C@@H](C)O)(C(=O)N[C@@H](Cc3ccncc3)C(N)=O)CC2)cc1F

Ki: < 10 nM
B3: Compound 302 (peptide)
peptide: {DOTA}-[d2Nal]NTF[azaGly]L[Api(1-amidino)]F-NH2
SMILES: CC(C)C[C@H](NC(=O)NNC(=O)[C@H](Cc1ccccc1)NC(=O)[C@@H](NC(=O)[C@H](CC(N)=O)NC(=O)[C@@H](Cc1ccc2ccccc2c1)NC(=O)CN1CCN(CC(=O)O)CCN(CC(=O)O)CCN(CC(=O)O)CC1)[C@@H](C)O)C(=O)NC1(C(=O)N[C@@H](Cc2ccccc2)C(N)=O)CCN(C(=N)N)CC1

Ki: < 10 nM
B4: Compound 305 (peptide)
peptide: {DOTA}-GY[Ahx]F[azaGly]L[X2]W-NH2
SMILES: Cc1ccc(CNCC(=O)N2CCC(NC(=O)[C@H](CC(C)C)NC(=O)NNC(=O)[C@H](Cc3ccccc3)NC(=O)CCCCCNC(=O)[C@H](Cc3ccc(O)cc3)NC(=O)CNC(=O)CN3CCN(CC(=O)O)CCN(CC(=O)O)CCN(CC(=O)O)CC3)(C(=O)N[C@@H](Cc3c[nH]c4ccccc34)C(N)=O)CC2)cc1F

Ki: < 10 nM
B5: Compound 290 (peptide)
peptide: {DOTA-Ahx}-[dW]NTF[azaGly]L[X2][4Pal]-NH2
SMILES: Cc1ccc(CNCC(=O)N2CCC(NC(=O)[C@H](CC(C)C)NC(=O)NNC(=O)[C@H](Cc3ccccc3)NC(=O)[C@@H](NC(=O)[C@H](CC(N)=O)NC(=O)[C@@H](Cc3c[nH]c4ccccc34)NC(=O)CCCCCNC(=O)CN3CCN(CC(=O)O)CCN(CC(=O)O)CCN(CC(=O)O)CC3)[C@@H](C)O)(C(=O)N[C@@H](Cc3ccncc3)C(N)=O)CC2)cc1F

Ki: < 10 nM
B6: Compound 291 (peptide)
peptide: {DOTA-Ahx}-[dY]NTF[azaGly]L[X2][4Pal]-NH2
SMILES: Cc1ccc(CNCC(=O)N2CCC(NC(=O)[C@H](CC(C)C)NC(=O)NNC(=O)[C@H](Cc3ccccc3)NC(=O)[C@@H](NC(=O)[C@H](CC(N)=O)NC(=O)[C@@H](Cc3ccc(O)cc3)NC(=O)CCCCCNC(=O)CN3CCN(CC(=O)O)CCN(CC(=O)O)CCN(CC(=O)O)CC3)[C@@H](C)O)(C(=O)N[C@@H](Cc3ccncc3)C(N)=O)CC2)cc1F

Ki: < 10 nM
B7: Compound 1 (peptide)
peptide: {DOTA-Ahx}-[dY][dW]NTF[azaGly]L[X2]W-NH2
SMILES: Cc1ccc(CNCC(=O)N2CCC(NC(=O)[C@H](CC(C)C)NC(=O)NNC(=O)[C@H](Cc3ccccc3)NC(=O)[C@@H](NC(=O)[C@H](CC(N)=O)NC(=O)[C@@H](Cc3c[nH]c4ccccc34)NC(=O)[C@@H](Cc3ccc(O)cc3)NC(=O)CCCCCNC(=O)CN3CCN(CC(=O)O)CCN(CC(=O)O)CCN(CC(=O)O)CC3)[C@@H](C)O)(C(=O)N[C@@H](Cc3c[nH]c4ccccc34)C(N)=O)CC2)cc1F

Ki: < 10 nM
B8: Compound 295 (peptide)
peptide: {DOTA-Ahx}-[d4Pal]NTF[azaGly]L[X2][4Pal]-NH2
SMILES: Cc1ccc(CNCC(=O)N2CCC(NC(=O)[C@H](CC(C)C)NC(=O)NNC(=O)[C@H](Cc3ccccc3)NC(=O)[C@@H](NC(=O)[C@H](CC(N)=O)NC(=O)[C@@H](Cc3ccncc3)NC(=O)CCCCCNC(=O)CN3CCN(CC(=O)O)CCN(CC(=O)O)CCN(CC(=O)O)CC3)[C@@H](C)O)(C(=O)N[C@@H](Cc3ccncc3)C(N)=O)CC2)cc1F
